Biological target: T1, c-Met-Fc (#358-MT/CF, R&D Systems) (UniProt P08581 25-932)
T1 construct: Bought reagent; also called 항원(c-Met); not shown: Fc part of the bought fusion
Test: SPR, Biacore T100; antibody captured on human Fab binder on a CM5 chip, c-Met-Fc injected at various concentrations

T1 sequence (P08581 25-932 limits assumed): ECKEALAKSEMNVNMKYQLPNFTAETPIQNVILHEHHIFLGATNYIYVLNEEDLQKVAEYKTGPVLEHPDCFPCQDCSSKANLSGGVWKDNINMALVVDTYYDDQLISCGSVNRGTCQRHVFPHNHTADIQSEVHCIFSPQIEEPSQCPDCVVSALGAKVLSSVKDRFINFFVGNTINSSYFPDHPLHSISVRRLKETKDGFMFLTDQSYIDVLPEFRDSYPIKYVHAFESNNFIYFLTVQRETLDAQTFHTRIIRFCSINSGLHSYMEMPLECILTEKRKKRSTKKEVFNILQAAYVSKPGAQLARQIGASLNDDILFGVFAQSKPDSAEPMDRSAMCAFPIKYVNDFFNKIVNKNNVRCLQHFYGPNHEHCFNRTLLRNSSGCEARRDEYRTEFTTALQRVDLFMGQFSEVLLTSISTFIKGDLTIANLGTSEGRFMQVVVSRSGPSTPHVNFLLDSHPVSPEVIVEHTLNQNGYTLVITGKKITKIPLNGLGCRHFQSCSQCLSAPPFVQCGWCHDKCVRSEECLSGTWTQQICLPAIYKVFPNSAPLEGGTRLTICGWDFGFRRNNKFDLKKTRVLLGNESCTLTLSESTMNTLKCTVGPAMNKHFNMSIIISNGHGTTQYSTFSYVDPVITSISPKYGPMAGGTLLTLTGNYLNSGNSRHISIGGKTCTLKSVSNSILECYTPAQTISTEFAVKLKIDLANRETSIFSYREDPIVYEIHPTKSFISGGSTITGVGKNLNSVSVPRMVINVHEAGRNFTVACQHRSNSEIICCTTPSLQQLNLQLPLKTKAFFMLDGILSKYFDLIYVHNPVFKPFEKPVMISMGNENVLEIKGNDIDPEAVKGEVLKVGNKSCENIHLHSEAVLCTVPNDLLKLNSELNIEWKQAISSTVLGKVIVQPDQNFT

Binder	Kd [pM]
항 c-Met 항체 (L3-1Y/IgG2), GSKO301 세포 생산 (antibody, V domains shown, Produced in GS-KO CHO cells that express the antibody only (GSKO301); also called STD (12A37); GSKO301 생산 항체) VH: EVQLVESGGGLVQPGGSLRLSCAASGFTFTDYYMSWVRQAPGKGLEWLGFIRNKANGYTTEYSASVKGRFTISRDNSKNTLYLQMNSLRAEDTAVYYCARDNWFAYWGQGTLVTVSS VL: DIQMTQSPSSLSASVGDRVTITCKSSQSLLASGNQNNYLAWYQQKPGKAPKMLIIWASTRVSGVPSRFSGSGSGTDFTLTISSLQPEDFATYYCQQSYSRPYTFGQGTKVEIKR	57
항 c-Met 항체 (L3-1Y/IgG2), GSKO301 GOT1 세포 생산 (antibody, V domains shown, Produced in GS-KO CHO cells that express the antibody and overexpress GOT1 (GSKO301 GOT1); also called GSKO301 GOT1 생산 항체; anti-c-Met antibody L3-1Y/IgG2) VH: EVQLVESGGGLVQPGGSLRLSCAASGFTFTDYYMSWVRQAPGKGLEWLGFIRNKANGYTTEYSASVKGRFTISRDNSKNTLYLQMNSLRAEDTAVYYCARDNWFAYWGQGTLVTVSS VL: DIQMTQSPSSLSASVGDRVTITCKSSQSLLASGNQNNYLAWYQQKPGKAPKMLIIWASTRVSGVPSRFSGSGSGTDFTLTISSLQPEDFATYYCQQSYSRPYTFGQGTKVEIKR	76
